Data set [1] in a line: Evaluation of adsorbability with respect to culture dish (OPA/NAC fluorescence). The settings on record: FIG. 1. Type of data set: physicochemical. As for the experimental part:
Each of the polypeptides obtained as above was diluted with a predetermined buffer such that they could be added to wells at a predetermined final concentration of 0 pmol/cm^2 to 200 pmol/cm^2. Thereafter, each of the polypeptides was added in an amount of 64 μL to a plasma-treated 96-well plate made of polystyrene (Tissue Culture-Treated, Falcon). Each of the polypeptides was allowed to adsorbed onto the plate by being incubated for 2 hours at 37° C., and then the wells were washed twice with PBS, thereby obtaining surfaces coated with each of the polypeptides of RCP-1 to RCP-16.
Among the surfaces coated with each of the polypeptides obtained as above, the surfaces coated with RCP-1 and RCP-11 to RCP-16 were applied with 64 μL of a borate buffer and 64 μL of 1 N NaOH, followed by incubation for 24 hours at 80° C. and 100% humidity. […] After incubation for 30 minutes at 40° C., the fluorescence intensity thereof was measured by using an ENVISION MULTILABEL COUNTER (trade name, PerkinElmer Inc.) (excitation 355 nm/fluorescence 486 nm). […]

Data set [2] relates to iPS cells. The data set is described as follows: Cell growth property evaluation 2 (ALP activity, 72 hours). Type of data set: cell-based, human. The settings on record: for Number of cells (%/LN-511): same method as Cell growth property evaluation 2, Table 13. As for the experimental part:
Each of the polypeptide liquids was added to the respective wells of a plasma-treated 96-well plate (BD Falcon) made of polystyrene having a plasma-treated cell culture surface, and the plate was held as it is for 2 hours at 37° C. such that the polypeptide was adsorbed thereonto, thereby obtaining a peptide-treated 96-well plate having a polypeptide-coated surface. Into the respective wells of the obtained peptide-treated 96-well plate, iPS cells suspended in a medium obtained by mixing TeSR2 (Stemcell Technologies Inc.) with NUTRISTEM (registered trademark, Bio Industries Inc.) at 1:1 (volume ratio) were seeded at a cell density of 10,000 cells/well. After 72 hours of culture, nonadhesive cells were washed off with PBS, and only adhesive cells were immobilized using 4% by mass paraformaldehyde (Wako Pure Chemical Industries, Ltd.). By using an ATTOPHOS (registered trademark) AP FLUORESCENT SUBSTRATE SYSTEM (Promega Corporation), the ALP activity was calculated, and from the calibration curve, the number of undifferentiated iPS cells having the ALP activity was calculated. In Table 11, the cell growth rate is expressed as a ratio calculated by regarding the number of cells after 72 hours of culture using recombinant laminin as being 100%. n=3.
By the same method as described in <Cell growth property evaluation 2> of Example 3, the cell growth properties of the polypeptide compositions II-1 and II-2 was evaluated. […] That is, it was understood that the polypeptide in which Cys 25, Cys 31, and the intramolecular cross-linking structure bind with each other is excellent in the cell growth activity.

Data set [3] concerns the target T1, Plasminogen Activator Inhibitor-1 (PAI-1) (Homo sapiens, UniProt P05121).
T1 construct: purchased R & D Systems Inc 1786-PI
Description: Evaluation of PAI-1 binding properties (plate assay, Scatchard plot). Conditions: for Binding constant: KA from slope of Scatchard plot, PAI-1 170 nM to 2.6 nM, RCP-5 immobilized from 100 μg/ml. As to the method:
By using a Plasminogen Activator Inhibitor-1 (PAI-1) known to bind with a polypeptide having a structure in which Cys 25 and Cys 31 are cross-linked to each other, detection of the cross-linking structure of Cys 25 and Cys 31 was tried.
The polypeptide compositions II-1 and II-2 (100 μg/ml) were added to a flat-bottomed black 96-well plate (half-Area) made of polystyrene at 64 μL/well. The entirety of the plate was covered with a sealing film (Funakoshi Co., Ltd.) and left to stand at 4° C. such that RCP-5 in each of the polypeptide compositions was immobilized. After 12 hours, the liquid in the wells was discarded, and TBS (NIPPON GENE CO., LTD.) containing 5% Bovine Serum Albumin (Sigma-Aldrich Co, LLC.) was added thereto at 150 μL/well. The plate was left to stand for 1 hour at 37° C., and then the liquid in the wells was discarded. Furthermore, BLOCKER CASEIN (trade name, Thermo Scientific Inc.) was added thereto at 150 μL/well, and the plate was left to stand at 37° C. as above so as to performing blocking. After 1 hour, TBS (TBST) containing 0.05% Tween 20 was added thereto at 150 μL/well, and the liquid was continuously discarded from the wells. By performing the above operation 4 times in total, the inside of the wells was washed.
Then, a solution of recombinant PAI-1 (catalog number 1786-PI, R & D Systems Inc) serially diluted with TBS from 170 nM to 2.6 nM at the same factor was added to the respective well at 50 μL/well, and the plate was left to stand at 37° C. After 1 hour, the PAI-1 solution was discarded from the wells, and the wells were washed with TBST 4 times in total by the same method as described above, thereby removing unbound PAI-1. […]
Furthermore, an undiluted solution of HRP-labeled anti-goat IgG antibodies (catalog number 81-1620, Life Technologies) was diluted 7,500-fold with TBS and added to the wells at 100 μL/well. […] The excitation wavelength and the fluorescence wavelength were set to be 330 nm and 410 nm respectively, and the binding of RCP-5 to PAI-1 was measured as a relative fluorescence unit by using ENVISION (trade name, PerkinElmer Inc). […]

T1 sequence (P05121 24-402): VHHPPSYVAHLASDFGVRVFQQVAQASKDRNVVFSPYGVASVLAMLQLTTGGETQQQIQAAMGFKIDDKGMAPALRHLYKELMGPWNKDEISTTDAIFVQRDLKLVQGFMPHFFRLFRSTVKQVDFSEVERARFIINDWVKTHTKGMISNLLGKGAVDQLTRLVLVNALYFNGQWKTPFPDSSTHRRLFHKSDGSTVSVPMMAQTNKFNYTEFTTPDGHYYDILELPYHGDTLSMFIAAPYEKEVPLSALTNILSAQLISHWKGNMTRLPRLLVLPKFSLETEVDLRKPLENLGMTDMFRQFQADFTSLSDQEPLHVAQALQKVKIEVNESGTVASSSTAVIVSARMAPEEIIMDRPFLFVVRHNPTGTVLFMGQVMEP

Consider “RCP-14: recombinant polypeptide SEQ ID NO: 27; human vitronectin positions 1-55 (GPLGDQESCKGRCTEGFNVDKKCQCDELCSYYQSCCTDYTAECKPQVTRGDVFTMPEDE; Synthetic peptide RCP-14)”, for which the “amount adsorbed onto the plate, as fraction of the amount of the polypeptide including SEQ ID NO: 3” value in data set [1] was “about ¼”.

B1: II-1: polypeptide composition containing RCP-5 after reduction treatment with Tris(2-carboxyethyl)phosphine Hydrochloride and dialysis (protein)
chain: MDQESCKGRCTEGFNVDKKCQCDELCSYYQSCCTDYTAECKPQVTRGDVFTMPEDEFWGRTSAGTRQPQFISRDWHGVPGQVDAAMAGRIYISGMAPRPSLAKKQRFRHRNRKGYRSQRGHSRGRNQN
As for B1, the “cell growth properties (in words)” value in data set [2] (comparison of compositions) is given as “better than that of the polypeptide composition II-2”. The “Number of cells (%/LN-511)” value in data set [2] was found to be 107 ± 47 %/LN-511. The same molecule gave a Binding constant in data set [3] of 0.22. For the same molecule, the “binding constant of PAI-1 (in words)” value in data set [3] (comparison of compositions) is recorded as “greater”.

B2: II-2: comparative polypeptide composition containing RCP-5, frozen at −80° C. without being treated, then dialyzed (protein)
chain: B1 chain
As for B2, the “Number of cells (%/LN-511)” value in data set [2] is listed as 79 ± 5 %/LN-511. This molecule returned a Binding constant in data set [3] of 0.06.

B3: RCP-13: recombinant polypeptide SEQ ID NO: 26; human vitronectin positions 1-55, 56-130 (protein)
chain: GPLGDQESCKGRCTEGFNVDKKCQCDELCSYYQSCCTDYTAECKPQVTRGDVFTMPEDEYTVYDDGEEKNNATVHEQVGGPSLTSDLQAQSKGNPEQTPVLKPEEEAPAPEVGASKPEGIDSRPETLHPGRPQP
modifications: Synthetic peptide RCP-13
As for B3, the “amount adsorbed onto the plate, as fraction of the amount of the polypeptide including SEQ ID NO: 3” value in data set [1] is recorded as “about ¼”.

These data come from patent US9938505B2, “Polypeptide composition and culture method for pluripotent stem cell using same” (FUJIFILM Corporation, priority 2013, dated 2018).
